Four molecules from US20020172962, “Methods of producing nucleic acid ligands” (GILEAD SCIENCES, INC., published 2002) can be followed below.

Series [1] deals with T1, HIV-1 reverse transcriptase (HIV-RT) (HIV-1, UniProt P03366;P03366 P03366:600-1159,P03366:600-1039). Nature of the series: filter; selected by HIV-RT from mixed 2'-OMe/2'-OH population.
The target in series [2] is T2, HIV-1 Rev (HIV-1, UniProt P04618 P04618:1-116). Kind of series: footprint; 200 mM KOAc, 50 mM Tris pH 7.7, 1 mM DTT, 5 mM MgCl2; 500 nM Rev. Conditions: tags: American Biotechnologies, Inc. The method, then: (§1) Chemical Modification of RNA. Chemical modification techniques for nucleic acids are described in general in Ehresmann et al. (1987) Nucleic Acids Research 15:9109-9128. Modification of RNA under native conditions was performed in 200 mM KOAc, 50 mM Tris-HCl pH 7.7, 1 mM EDTA at 37° C. Modification under denaturing conditions was done in 7 M urea, 50 mM Tris-HCl pH 7.7 at 90° C. Concentration of modifying agents and incubation times are as follows: ethylnitrosourea (ENU)-1/5 dilution v/v of ethanol saturated with ENU, native 1-3 hours, denaturing 5 minutes; dimethyl sulfate (DMS)-1/750-fold dilution v/v, native 8 minutes, denaturing 1 minute; kethoxal- 0.5 mg/ml, native 5 minutes, denaturing 2 minutes; carbodiimide (CMCT)-10 mg/ml, native 30 minutes, denaturing 3 minutes; diethyl pyrocarbonate (DEPC)-1/10 dilution v/v, native 10 minutes, denaturing 1 minute.
Modification of RNA in the presence of Rev. “Footprinting” of the Rev ligand, modification of the RNA ligand in the presence of Rev protein, was performed in 200 mM KOAc, 50 mM Tris-Cl pH 7.7, 1 mM DTT, and 5 mM MgCl₂. Concentration of protein was 500 nanomolar, and approximately in 3-fold molar excess over RNA concentration. Modification with protein present was attempted with all modifying agents listed above except ethylnitrosourea (ENU).

Series [3] deals with T2, HIV-1 Rev. Nature of the series: filter; high-affinity ligand; modification interference; 200 mM KOAc, 50 mM Tris pH 7.7, 10 mM DTT, 37 C. As to conditions: tags: American Biotechnologies, Inc. The protocol: as §1
Modification interference of Rev binding. RNAs chemically modified under denaturing conditions were selected for Rev binding through filter partitioning. […]
The extent of modification interference was determined by densitometric scanning of autoradiographs using LKB (ENU) and Molecular Dynamics (DMS, kethoxal, CMCT, and DEPC) laser densitometers. […]

The target in series [4] is T1, HIV-1 reverse transcriptase (HIV-RT). Nature of the series: footprint; chemical protection and modification interference. The text has this: Selection of modified RNAs by HIV-RT. Binding reactions were as above except that rather than to vary the amount of HIV-RT added to a reaction, the volume of reaction was increased in order to lower concentration. RNAs that were modified under denaturing conditions were selected at concentrations of 20, 4 and 0.8 nanomolar HIV-RT (in volumes of 1, 5 and 25 mls of binding buffer.) The amount of RNA added to each reaction was equivalent for each experiment (approximately 1-5 picomoles). RNA was eluted from filters as described in Tuerk et al. (1990) J. Mol. Biol. 213:749; Tuerk and Gold (1990) Science 249:505-510, and assayed for modified positions. In each experiment a control was included in which unselected RNA was spotted on a filter, eluted and assayed for modified positions in parallel with the selected RNAs. Determinations of variation in chemical modification for selected versus unselected RNAs were made by visual inspection of exposed films of electrophoresed assay products with the following exceptions. The extent of modification interference by ENU was determined by densitometric scanning of films using an LKB laser densitomer. An index of modification interference (M.I.) at each position was calculated as follows:
Assay of chemical modification. […]

T2 sequence (P04618 whole entry, one chain of several): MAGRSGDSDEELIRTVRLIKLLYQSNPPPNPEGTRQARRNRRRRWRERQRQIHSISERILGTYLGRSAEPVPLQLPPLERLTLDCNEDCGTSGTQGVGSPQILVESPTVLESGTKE

B1: 2'-methoxy mixed ligand B oligonucleotide (mixed)
RNA: AAAAAUCCGAAGUGCAACGGGAAAAUGCACU
modifications: AAAAA 5' tail deoxy; UCCGA and ACGGGAAAA mixed 2'-OH/2'-OMe; AGUGCA and UGCACU 2'-OMe
In the case of B1, the binding result in series [1] is on record as “binds”.

B2: extended Rev ligand 6a (ssRNA)
RNA: GGGUGCAUUGAGAAACACGUUUGUGGACUCUGUAUCUAUGAAAGAAUUUUAUAUCUCUAUUGAAAC
Regarding B2, in the series with HIV-1 Rev [2], the binding result was “binds”.

B3: Rev ligand 6a (ssRNA)
RNA: GGGUGCAUUGAGAAACACGUUUGUGGACUCUGUAUCU
On to B3, for which, in the series with HIV-1 Rev [3], the binding result is “binds”.

B4: lengthened ligand B (ssRNA)
RNA: GGUCCGAAGUGCAACGGGAAAAUGCACUAUGAAAGAAUUUUAUAUCUCUAUUGAAAC
For B4, the binding result in series [4] is “binds”.
